One experiment deals with T1, human Notch-3 (human, UniProt Q9UM47 40-467, limits assumed).
T1 construct: Construct not described
T1 sequence (looked up): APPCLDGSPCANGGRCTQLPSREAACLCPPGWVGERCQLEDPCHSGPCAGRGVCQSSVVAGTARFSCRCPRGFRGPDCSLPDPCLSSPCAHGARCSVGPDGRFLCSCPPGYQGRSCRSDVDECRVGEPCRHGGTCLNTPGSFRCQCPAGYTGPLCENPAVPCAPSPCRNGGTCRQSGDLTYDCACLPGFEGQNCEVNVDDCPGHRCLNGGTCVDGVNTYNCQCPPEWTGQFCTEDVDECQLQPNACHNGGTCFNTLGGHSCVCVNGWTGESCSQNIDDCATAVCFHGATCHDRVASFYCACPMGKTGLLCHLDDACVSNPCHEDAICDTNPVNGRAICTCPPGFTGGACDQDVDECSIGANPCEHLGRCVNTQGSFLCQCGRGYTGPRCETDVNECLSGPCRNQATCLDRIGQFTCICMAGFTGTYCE
Put plainly: ELISA: human Notch-3 coated at 2 ug/mL, Nanobody series 25 pM-2000 nM, detection by rabbit anti-VHH and DAMPO, OD 490 nm. As for the experimental part:
(§1) After washing, the plate was blocked using 4% Marvel skimmed milk in PBS for 30 minutes on shaker. A concentration series of the Nanobodies in Table B-5 (25 pM to 2000 nM) was added in 100 microliter 2% Marvell/PBS and incubated for 1 h on shaker. After washing the Nanobodies were detected with 100 microliter 1:2500 R-anti-VHH (1:2500) in 2% Marvell/PBS and 100 microliter 1:5000 DAMPO in 2% Marvell/PBS for 1 h on shaker. PO was detected with 100 microliter OPD and stopped with 50 microliter H2SO4. Quantification was performed at 490 nm in a plate reader.

Experiment [1] has as its target T2, human DLL4 (rhDLL4, R&D Systems Cat #1506-D4-050) (human, UniProt Q9NR61 27-529).
T2 construct: extracellular domain; Bought reagent
The experiment can be described thus: ELISA: rhDLL4 coated at 5 ug/mL, Nanobody series, detection by mouse anti-Myc tag (9E10) and DAMPO, OD 490 nm. As for the experimental part:
Two rounds of phage display selection were performed similarly as described above. Binding assays were performed. In short: Maxisorp plate was coated with 100 ul 5 ug/ml of rhDLL4 (R&D systems) in PBS O/N at 4° C. After washing the plate was blocked with 4% MPBS for 30 minutes hour on shaker. A concentration series of Nanobody (1-1000 nM) was added in 100 ul 2% Marvell/PBS and incubate for 1 hour on shaker. Nanobody was detected with 100 ul 1:5000 Mouse-anti-MycTag (9E10) in 2% Marvell/PBS and with 100 ul 1:5000 DAMPO in 2% Marvell/PBS for 1 hour on shaker. After washing PO was detected with 100 ul OPD and stopped with 50 ul H2SO4. Quantification was performed at 490 nm in a plate reader.

The target of experiment [2] is human Notch-2 (R&D Systems Cat #3735-NT-050), Notch-2-Fc fusion (human) (UniProt Q04721). The experiment can be described thus: ELISA: human Notch-2 coated at 2 ug/mL, Nanobody series 25 pM-2000 nM, detection by rabbit anti-VHH and DAMPO, OD 490 nm.
For experiment [3], the target named is T3, recombinant human Notch-1/Fc Chimera (R&D Systems Cat No 3647-TK) (human, UniProt P46531 19-526).
T3 construct: Bought reagent; also called rhNotch-1/hFc; rhNotch-1; not shown: human Fc (hFc)
Put plainly: ELISA: human Notch-1 coated at 2 ug/mL, Nanobody series 25 pM-2000 nM, detection by rabbit anti-VHH and DAMPO, OD 490 nm. As for the experimental part: as §1

The target of experiment [4] is T3, recombinant human Notch-1/Fc Chimera …. The experiment can be described thus: ELISA: human Notch-1/Fc coated at 2 ug/mL, Nanobody series, detection by mouse anti-Myc tag and DAMPO, OD 490 nm. Here is the method:
After washing the plate was blocked using 4% Marvel skimmed milk in PBS for 30 minutes on shaker. A concentration series of Nanobody (1 to 1000 nM) was added in 100 microliter 2% Marvell/PBS and incubated for 1 h on shaker. […] PO was detected with 100 microliter OPD and stopped with 50 microliter H2SO4. Quantification was performed at 490 nm in a plate reader.

T2 sequence (Q9NR61 27-529): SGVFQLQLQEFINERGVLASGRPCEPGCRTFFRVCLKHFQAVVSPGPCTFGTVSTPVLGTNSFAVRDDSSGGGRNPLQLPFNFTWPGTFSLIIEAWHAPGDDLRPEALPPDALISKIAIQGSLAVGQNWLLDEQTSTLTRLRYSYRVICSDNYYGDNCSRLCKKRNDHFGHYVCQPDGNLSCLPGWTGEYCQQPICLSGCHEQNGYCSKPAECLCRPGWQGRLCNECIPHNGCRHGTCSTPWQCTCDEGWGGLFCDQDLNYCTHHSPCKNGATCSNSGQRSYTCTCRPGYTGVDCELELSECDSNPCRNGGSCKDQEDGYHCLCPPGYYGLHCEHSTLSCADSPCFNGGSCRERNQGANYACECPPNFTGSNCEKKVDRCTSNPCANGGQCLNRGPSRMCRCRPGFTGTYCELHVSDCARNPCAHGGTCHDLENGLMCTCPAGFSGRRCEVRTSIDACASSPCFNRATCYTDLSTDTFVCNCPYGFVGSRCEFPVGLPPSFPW

B1: 50C4 (VHH)
VHH: EVQLVESGGDLVQPGGSLRLSCAASGFTFSTYYMSWVRQAPGKGLEWVSGIYSDGSNTYYADSVKGRFTISRDNAKNTLYLQMNSLKSEDTAVYYCTRPVVVAGSPVSYEYDYIGQGTQVTVSS
notes: Nanobody against human Notch-3
A word on the EC50 (read off the curve): it is the concentration needed to bring the measured effect to its halfway point. Take B1: in the experiment with human Notch-3, the “EC50 (read off the curve)” value was roughly 2 nM.

B2: 50H9 (VHH)
VHH: EVQLVESGGDLVQPGGSLRLSCAASGFTFSTYYMSWVRQAPGKGLEWVSGIYSDGSNTYYADSVKGRFTISRDNAKNTLYLQMNSLKSEDTAVYYCTRPVVVAGSPVSYEYDYIGQGTQVTVSS
notes: as for B1
Take B2: the “EC50 (read off the curve)” value with human Notch-3 was roughly 2 nM.

B3: 179F6 (VHH)
VHH: EVQLVESGGGLVQAGGSLRLSCAASGSDFSGFLLGWYRQPPGKQRELIAQTTDGGRTNYGDSVKGRFTISRDNAKNTWYLQMDSLKPEDTGVYYCNTFPLTSWGQGTQVTVSS
notes: Nanobody against human DLL4; not shown: C-terminal c-myc tag and His6 tag coded by vector pAX50
For the molecule B3, in experiment [1], the binding result is recorded as “binds”.

B4: 181D3 (VHH)
VHH: EVQLVESGGGLVQAGGSLRLSCAASTNVSSFNTMSWYRQSPRKQREWVATITDGDNTHYADSVKGRFTTSRDNAKNLLYLQMNSLKPEDTAVYYCTGWRATSGGSYGQGTQVTVSS
notes: Nanobody against human Notch-2, 'generated as above'
As to B4, the EC50 (read off the curve) in experiment [2] was determined as 5 nM. The binding result (in experiment [3]; with human Notch-3) was “no binding (tested: 2000 nM)” each time.

B5: 180C1 (VHH)
VHH: EVQLVESGGDLVQPGGSLRLSCAASRTVFSISDMGWSRQAPGKERELVASISSDNYTVYADAAKGRFTISRDNSKNTVYLEMNSLKPDDTAVYYCRVVDPLRGKLYWGQGTQVTVSS
For the molecule B5, the “EC50 (read off the curve)” value in experiment [4] is roughly 20 nM.

B6: 180B3 (VHH)
VHH: EVQLVESGGDLVQPGGSLRLSCAASGTVFSNNDMGWSRQAPGKERELVASFTSGGNTVYADAAKGRFTISRDNSKNTVYLEMNSLKPDDTAVYYCRVVDLLRGKLYWGQGTQVTVSS
Regarding B6, the “EC50 (read off the curve)” value in experiment [4] was roughly 6 nM.

B7: 180F10 (VHH)
VHH: EVQLVESGGDLVQPGGSLRLSCAASATVFSNSDMGWSRQAPGKERELVASITTDGNTLYADAAKGRFAIYRDNSKNTVYLEMNSLKPDDTAVYYCRVVDLLRGKLYWGQGTQVTVSS
B7: the “EC50 (read off the curve)” value in experiment [4] is roughly 5 nM.

B8: 180F8 (VHH)
VHH: EVQLVESGGDLVQPGGSLRLSCTTSGTVFSINDMGWSRQAPGKGRELVASISSEGTTIYADAAKGRFTISRDNSKNTVYLEMNSLKPDDTAVYYCRVVDPLRGKLYWGQGTQVTVSS
notes: Nanobody against human Notch-1
With B8, the “EC50 (read off the curve)” value in experiment [3] fell in the range of 10 to 16 nM. In the experiment with human Notch-3, the binding result is “no binding (tested: 2000 nM)”.

B9: 180F4 (VHH)
VHH: EVQLVESGGGLVQAGDSLRLSCAVSGGSFSSYTMGWVRQAPGKEREAVASIWRSGGNTYYADSVKGRFTVSRDNAKHTVYLQMNSLKPEDTAVYYCAAASFAPGSRGYDYWGQGTQVTVSS
As to B9, in experiment [4], the “EC50 (read off the curve)” value was roughly 20 nM.

B10: 181E3 (VHH)
VHH: EVQLVESGGGLVQPGGSLRLSCAASGFTFGDYAMNWVRQAPGKGLEWVSSISAGGYSTTYADSVKGRFTISRDNAKNTLYLQMNSLNPEDTAVYYCARGDWRYGSRGQGTQVTVSS
notes: as for B4
B10: the binding result (in experiment [3]; with human Notch-3) was “no binding (tested: 2000 nM)” throughout.

B11: 180A4 (VHH)
VHH: EVQLVESGGGLVQPGGSLRLSCAASGRTSSPIAMGWFRQAPGKEREFVSGITWSGAYTHYANSVKGRFTISRDSAKNTVYLQMNSLKPEDTAVYYCTTATNSTTGYDYWGQGTQVTVSS
In the case of B11, the “EC50 (read off the curve)” value in experiment [4] was roughly 7 nM.

B12: 181B3 (VHH)
VHH: EVQLVESGGGLVQAGGSLRLSCVVSGSILSINTMDWYRQAPGKQREWFAGLSDGGRANYADSVKDRFTIARDNAKNTVYLQMNSLKPGDTAIYYCAADLWDRGATTGRYWGQGTQVTVSS
notes: detection there was with anti-VHH
As to B12, the EC50 (read off the curve) in experiment [2] came out at 2 nM. The binding result (in experiment [3]; with human Notch-3) was “no binding (tested: 2000 nM)” in each case.

B13: 179F7 (VHH)
VHH: EVQLVESGGGLVQSGGSLSLSCAASGSVLRINDMGWYRQAPGKTREMVATITRSGVLNYTDSVKGRFTVSRDDAKNTVYLQMSSLKPEDTAVYSCFANIVIRSSGYFNRYWGQGTLVTVSS
notes: as for B3
B13: the binding result in experiment [1] is “binds”.

B14: 181D2 (VHH)
VHH: EVQLVESGGGLVQPGGSLRLSCAASGRINSMNWYRQAPGKEREWVASITSSGTTIYADSVKGRITISEDNAKNTVYLQMNSLKTEDTGVYYCAANLRNARGSYYGQGTQVTVSS
notes: as for B4
For B14, in experiment [2], the EC50 (read off the curve) worked out at 5 nM. For the same molecule, the binding result (in experiment [3]; with human Notch-3) was “no binding (tested: 2000 nM)” throughout.

B15: 4H2 (VHH)
VHH: EVQLVESGGGLVQAGGSLRLSCATSGFTFSRFDMSWFRQAPGKQREFIATIFSGGDTDYIDSVKGRFTISRDNAKNTVYLQMNSLKPEDTAVYYCCPLGIEYAWGQGTQVTVSS
As to B15, the binding result (in experiment [3]; with human Notch-3) was “no binding (tested: 2000 nM)” in each case.

B16: 179D12 (VHH)
VHH: EVQLVESGGGLVQAGGSLRLSCVASGDTSEIYDMGWFRQAPGKEREFVSSIHWGGRGTNYTDSVKGRFTISKDNAKNMVYLQMNSLKPEDTAVYYCAATRLIVYTPTGFRQYFDWGQGTQVTVSS
notes: as for B3
Turning to B16, the binding result in experiment [1] was “binds”.

B17: 179E6 (VHH)
VHH: EVQLVESGGGLVQAGGSLRLSCIASGDTSEIYDMGWFRQAPGKEREFVSSIHWRGRGTNYTDSVEGRFTISKDNAKNMVYLQMNSLKPEDTAVYYCAATRLIVYTPTGFRQYFDWGQGAQVTVSS
notes: as for B3
Consider B17, for which the binding result in experiment [1] was “binds”.

B18: 179A10 (VHH)
VHH: EVQLVESGGGLVQAGGSLRLSCVASGDTSEIYDMGWFRQAPGKEREFVSSIHWGGRGTNYTDSVKGRFTISKDNAKNMVHLQMNSLKPEDTAVYYCAATRLIVYTPTGFRQYFDWGQGTQVTVSS
notes: as for B3
As for B18, in experiment [1], the binding result is “binds”.
